Reference: paper PMC6752053 (Cell, 2019)

Molecular target: the molecule itself
Test: X-ray diffraction of polymer pellets

B1: His6-Pbp1_LC (C-terminal low-complexity region of Pbp1, a.a.570-722) (domain or fragment, S. cerevisiae, UniProt P53297 570-722, looked up)
chain: NSMGNAVPGMNPAMGMNMGGMMGFPMGGPSASPNPMMNGFAAGSMGMYMPFQPQPMFYHPSMPQMMPVMGSNGAEEGGGNISPHVPAGFMAAGPGAPMGAFGYPGGIPFQGMMGSGPSGMPANGSAMHSHGHSRNYHQTSHHGHHNSSTSGHK
  binding result: binds
